Experimental data taken from paper PMC10397247.
Each block holds one binder with its values, some of them ahead of it.

Legend:
Assay in all cases: two-hybrid library CCmax;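 also: natural log of median RNA to DNA barcode read ratio; higher means stronger binding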
4H369-AA = target: T1, 4H369-AA
T1 chain: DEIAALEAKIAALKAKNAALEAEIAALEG

4H3605-AA = target: T2, 4H3605-AA; details: mean of both orientations
T2 chain: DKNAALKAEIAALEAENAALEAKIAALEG

4H1198-AA = target: T3, 4H1198-AA
T3 chain: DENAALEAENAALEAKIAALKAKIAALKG

4H3625-AA = target: T4, 4H3625-AA; details: mean of both orientations
T4 chain: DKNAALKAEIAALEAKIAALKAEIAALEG

4H2608-AA = target: T5, 4H2608-AA; details: mean of both orientations
T5 chain: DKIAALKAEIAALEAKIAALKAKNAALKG

4H2536-AA = target: T6, 4H2536-AA; details: mean of both orientations
T6 chain: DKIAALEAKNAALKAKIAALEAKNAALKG

4H3922-AA = target: T7, 4H3922-AA; details: mean of both orientations
T7 chain: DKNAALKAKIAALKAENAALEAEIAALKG

4H1405-AA = target: T8, 4H1405-AA; details: mean of both orientations
T8 chain: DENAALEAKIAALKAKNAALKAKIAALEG

4H327-AA = target: T9, 4H327-AA; details: mean of both orientations
T9 chain: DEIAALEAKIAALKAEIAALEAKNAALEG

4H2238-AA = target: T10, 4H2238-AA; details: mean of both orientations
T10 chain: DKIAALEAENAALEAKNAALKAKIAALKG

4H55-AA = target: T11, 4H55-AA; details: mean of both orientations
T11 chain: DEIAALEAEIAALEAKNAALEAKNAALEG

4H3664-AA = target: T12, 4H3664-AA; details: mean of both orientations
T12 chain: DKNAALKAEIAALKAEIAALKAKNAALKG

4H4033-AA = target: T13, 4H4033-AA; details: mean of both orientations
T13 chain: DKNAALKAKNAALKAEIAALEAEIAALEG

4H2935-AA = target: T14, 4H2935-AA; details: mean of both orientations
T14 chain: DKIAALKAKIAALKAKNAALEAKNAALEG

4H2614-AA = target: T15, 4H2614-AA; details: mean of both orientations
T15 chain: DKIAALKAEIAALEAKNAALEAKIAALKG

4H1350-AA = target: T16, 4H1350-AA; details: mean of both orientations
T16 chain: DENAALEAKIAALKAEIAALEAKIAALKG

4H341-AA = target: T17, 4H341-AA
T17 chain: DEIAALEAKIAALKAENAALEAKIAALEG

4H2211-AA = target: T18, 4H2211-AA; details: mean of both orientations
T18 chain: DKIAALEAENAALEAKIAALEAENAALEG

4H2726-AA = target: T19, 4H2726-AA; details: mean of both orientations
T19 chain: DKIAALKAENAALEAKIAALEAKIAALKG

4H2513-AA = target: T20, 4H2513-AA; details: mean of both orientations
T20 chain: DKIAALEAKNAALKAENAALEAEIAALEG

4H662-AA = target: T21, 4H662-AA; details: mean of both orientations
T21 chain: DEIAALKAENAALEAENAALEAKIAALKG

4H481-AA = target: T22, 4H481-AA; details: mean of both orientations
T22 chain: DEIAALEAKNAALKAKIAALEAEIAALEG

4H3409-AA = target: T23, 4H3409-AA; details: mean of both orientations
T23 chain: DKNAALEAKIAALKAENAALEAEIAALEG

4H2687-AA = target: T24, 4H2687-AA; details: mean of both orientations
T24 chain: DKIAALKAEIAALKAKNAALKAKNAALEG

4H278-AA = target: T25, 4H278-AA; details: mean of both orientations
T25 chain: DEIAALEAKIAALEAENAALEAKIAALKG

4H2512-AA = target: T26, 4H2512-AA; details: mean of both orientations
T26 chain: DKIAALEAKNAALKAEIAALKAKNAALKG

4H87-AA = target: T27, 4H87-AA; details: mean of both orientations
T27 chain: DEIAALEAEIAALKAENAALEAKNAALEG

4H2646-AA = target: T28, 4H2646-AA; details: mean of both orientations
T28 chain: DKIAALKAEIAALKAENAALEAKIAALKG

4H1985-AA = target: T29, 4H1985-AA; details: mean of both orientations
T29 chain: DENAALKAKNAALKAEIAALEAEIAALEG

4H1710-AA = target: T30, 4H1710-AA
T30 chain: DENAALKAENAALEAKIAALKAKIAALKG

4H2985-AA = target: T31, 4H2985-AA; details: mean of both orientations
T31 chain: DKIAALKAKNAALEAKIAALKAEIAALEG

4H390-AA = target: T32, 4H390-AA; details: mean of both orientations
T32 chain: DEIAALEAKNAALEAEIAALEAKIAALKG

4H2187-AA = target: T33, 4H2187-AA
T33 chain: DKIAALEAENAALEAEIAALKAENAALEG

4H3940-AA = target: T34, 4H3940-AA; details: mean of both orientations
T34 chain: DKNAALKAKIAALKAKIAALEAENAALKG

4H510-AA = target: T35, 4H510-AA; details: mean of both orientations
T35 chain: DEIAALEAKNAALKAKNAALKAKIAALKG

4H2705-AA = target: T36, 4H2705-AA; details: mean of both orientations
T36 chain: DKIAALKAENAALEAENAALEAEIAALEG

4H816-AA = target: T37, 4H816-AA; details: mean of both orientations
T37 chain: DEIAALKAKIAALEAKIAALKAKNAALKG

4H2758-AA = target: T38, 4H2758-AA; details: mean of both orientations
T38 chain: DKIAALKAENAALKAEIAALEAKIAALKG

4H2873-AA = target: T39, 4H2873-AA; details: mean of both orientations
T39 chain: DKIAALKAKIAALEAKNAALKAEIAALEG

4H233-AA = target: T40, 4H233-AA; details: mean of both orientations
T40 chain: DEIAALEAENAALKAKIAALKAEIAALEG

4H3134-AA = target: T41, 4H3134-AA; details: mean of both orientations
T41 chain: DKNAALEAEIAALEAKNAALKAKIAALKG

4H775-AA = target: T42, 4H775-AA; details: mean of both orientations
T42 chain: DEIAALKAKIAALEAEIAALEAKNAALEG

- interaction score (4H369-AA): -1.45
- interaction score (4H3605-AA): 0.0472
- interaction score (4H1198-AA): -0.611
- interaction score (4H3625-AA): -0.0176
- interaction score (4H2608-AA): 0.869
- interaction score (4H2536-AA): -0.886
- interaction score (4H3922-AA): 0.661
- interaction score (4H1405-AA): -0.758
- interaction score (4H327-AA): -0.574
- interaction score (4H2238-AA): -0.785
- interaction score (4H55-AA): -0.467
- interaction score (4H3664-AA): 1.22
- interaction score (4H4033-AA): 2.18
- interaction score (4H2935-AA): -1.5
- interaction score (4H2614-AA): -0.463
- interaction score (4H1350-AA): 0.496
- interaction score (4H341-AA): -2.13
- interaction score (4H2211-AA): -1.3
- interaction score (4H2726-AA): -0.438
- interaction score (4H2513-AA): 1.14
- interaction score (4H662-AA): -1.15
- interaction score (4H481-AA): 1.9
B1: 4H1198-AA (peptide)
chain: DENAALEAENAALEAKIAALKAKIAALKG

- interaction score (4H3409-AA): -0.675
- interaction score (4H2687-AA): -1.29
- interaction score (4H278-AA): -0.799
- interaction score (4H2512-AA): -0.967
- interaction score (4H87-AA): -1.16
- interaction score (4H2646-AA): -1.37
- interaction score (4H3625-AA): -0.181
- interaction score (4H1985-AA): 2.15
- interaction score (4H1710-AA): -0.109
- interaction score (4H2985-AA): 0.52
- interaction score (4H390-AA): 1.21
- interaction score (4H2187-AA): -0.907
- interaction score (4H3940-AA): -0.657
- interaction score (4H510-AA): -0.836
- interaction score (4H2705-AA): -0.626
- interaction score (4H816-AA): -0.912
- interaction score (4H2758-AA): 1.82
- interaction score (4H2873-AA): -0.937
- interaction score (4H233-AA): 1.63
- interaction score (4H3134-AA): -0.882
- interaction score (4H775-AA): -0.259
B2: 4H1710-AA (peptide)
chain: DENAALKAENAALEAKIAALKAKIAALKG
